For the experiment, the target named is SARS-CoV-2 Delta (B.1.617.2) spike protein RBD, His-tagged (SARS-CoV-2 Delta (B.1.617.2), UniProt P0DTC2). Nature of the experiment: SPR.

Results on two molecules are retold here after paper PMC10215022 (mAbs, 2023).

B1: casirivimab (REGN10933) (antibody, V domains shown)
VH: QVQLVESGGGLVKPGGSLRLSCAASGFTFSDYYMSWIRQAPGKGLEWVSYITYSGSTIYYADSVKGRFTISRDNAKSSLYLQMNSLRAEDTAVYYCARDRGTTMVPFDYWGQGTLVTVSS
VL: DIQMTQSPSSLSASVGDRVTITCQASQDITNYLNWYQQKPGKAPKLLIYAASNLETGVPSRFSGSGSGTDFTFTISGLQPEDIATYYCQQYDNLPLTFGGGTKVEIK
For the molecule B1, the Kd (commonly the equilibrium constant for the complex coming apart) was determined as 0.07 nM; the koff (as a rule, a measure of how fast the partners let go of each other) was determined as 0.0002 s⁻¹; the association rate constant (kon) (commonly the rate constant with which the complex forms) was found to be 2.9e+06 M⁻¹ s⁻¹.

B2: imdevimab (REGN10987) (antibody, V domains shown)
VH: QVQLVESGGGVVQPGRSLRLSCAASGFTFSNYAMYWVRQAPGKGLEWVAVISYDGSNKYYADSVKGRFTISRDNSKNTLYLQMNSLRTEDTAVYYCASGSDYGDYLLVYWGQGTLVTVSS
VL: QSALTQPASVSGSPGQSITISCTGTSSDVGGYNYVSWYQQHPGKAPKLMIYDVSKRPSGVSNRFSGSKSGNTASLTISGLQSEDEADYYCNSLTSISTWVFGGGTKLTVL
With B2, the Kd was 0.11 nM, the off-rate constant (koff) is 0.00028 s⁻¹ and the kon amounted to 2.6e+06 M⁻¹ s⁻¹.
